According to publication PMC4379501:

T1: cyclo[RGDfK] cell adhesive peptide, surface-bound, light-activated from c[RGD(DMNPB)fK]
T1 chain: RGDFK

B1: integrin αVβ3 on human umbilical vein endothelial cells (HUVEC), P06756 31-1048; P05106 27-788 (receptor)
chain 1: FNLDVDSPAEYSGPEGSYFGFAVDFFVPSASSRMFLLVGAPKANTTQPGIVEGGQVLKCDWSSTRRCQPIEFDATGNRDYAKDDPLEFKSHQWFGASVRSKQDKILACAPLYHWRTEMKQEREPVGTCFLQDGTKTVEYAPCRSQDIDADGQGFCQGGFSIDFTKADRVLLGGPGSFYWQGQLISDQVAEIVSKYDPNVYSIKYNNQLATRTAQAIFDDSYLGYSVAVGDFNGDGIDDFVSGVPRAARTLGMVYIYDGKNMSSLYNFTGEQMAAYFGFSVAATDINGDDYADVFIGAPLFMDRGSDGKLQEVGQVSVSLQRASGDFQTTKLNGFEVFARFGSAIAPLGDLDQDGFNDIAIAAPYGGEDKKGIVYIFNGRSTGLNAVPSQILEGQWAARSMPPSFGYSMKGATDIDKNGYPDLIVGAFGVDRAILYRARPVITVNAGLEVYPSILNQDNKTCSLPGTALKVSCFNVRFCLKADGKGVLPRKLNFQVELLLDKLKQKGAIRRALFLYSRSPSHSKNMTISRGGLMQCEELIAYLRDESEFRDKLTPITIFMEYRLDYRTAADTTGLQPILNQFTPANISRQAHILLDCGEDNVCKPKLEVSVDSDQKKIYIGDDNPLTLIVKAQNQGEGAYEAELIVSIPLQADFIGVVRNNEALARLSCAFKTENQTRQVVCDLGNPMKAGTQLLAGLRFSVHQQSEMDTSVKFDLQIQSSNLFDKVSPVVSHKVDLAVLAAVEIRGVSSPDHVFLPIPNWEHKENPETEEDVGPVVQHIYELRNNGPSSFSKAMLHLQWPYKYNNNTLLYILHYDIDGPMNCTSDMEINPLRIKISSLQTTEKNDTVAGQGERDHLITKRDLALSEGDIHTLGCGVAQCLKIVCQVGRLDRGKSAILYVKSLLWTETFMNKENQNHSYSLKSSASFNVIEFPYKNLPIEDITNSTLVTTNVTWGIQPAPMPVPVWVIILAVLAGLLLLAVLVFVMYRMGFFKRVRPPQEEQEREQLQPHENGEGNSET
chain 2: GPNICTTRGVSSCQQCLAVSPMCAWCSDEALPLGSPRCDLKENLLKDNCAPESIEFPVSEARVLEDRPLSDKGSGDSSQVTQVSPQRIALRLRPDDSKNFSIQVRQVEDYPVDIYYLMDLSYSMKDDLWSIQNLGTKLATQMRKLTSNLRIGFGAFVDKPVSPYMYISPPEALENPCYDMKTTCLPMFGYKHVLTLTDQVTRFNEEVKKQSVSRNRDAPEGGFDAIMQATVCDEKIGWRNDASHLLVFTTDAKTHIALDGRLAGIVQPNDGQCHVGSDNHYSASTTMDYPSLGLMTEKLSQKNINLIFAVTENVVNLYQNYSELIPGTTVGVLSMDSSNVLQLIVDAYGKIRSKVELEVRDLPEELSLSFNATCLNNEVIPGLKSCMGLKIGDTVSFSIEAKVRGCPQEKEKSFTIKPVGFKDSLIVQVTFDCDCACQAQAEPNSHRCNNGNGTFECGVCRCGPGWLGSQCECSEEDYRPSQQDECSPREGQPVCSQRGECLCGQCVCHSSDFGKITGKYCECDDFSCVRYKGEMCSGHGQCSCGDCLCDSDWTGYYCNCTTRTDTCMSSNGLLCSGRGKCECGSCVCIQPGSYGDTCEKCPTCPDACTFKKECVECKKFDRGALHDENTCNRYCRDEIESVKELKDTGKDAVNCTYKNEDDCVVRFQYYEDSSGKSILYVVEEPECPKGPDILVVLLSVMGAILLIGLAALLIWKLLITIHDRKEFAKFEEERARAKWDTANNPLYKEATSTFTNITYRGT
modifications: here or on the partner: cyclic peptide (cyclo); f = D-phenylalanine
B2: integrin αVβ3 on stable OV-MZ-6 cell transfectants overexpressing integrin αVβ3, P06756 31-1048; P05106 27-788 (receptor)
chain 1: FNLDVDSPAEYSGPEGSYFGFAVDFFVPSASSRMFLLVGAPKANTTQPGIVEGGQVLKCDWSSTRRCQPIEFDATGNRDYAKDDPLEFKSHQWFGASVRSKQDKILACAPLYHWRTEMKQEREPVGTCFLQDGTKTVEYAPCRSQDIDADGQGFCQGGFSIDFTKADRVLLGGPGSFYWQGQLISDQVAEIVSKYDPNVYSIKYNNQLATRTAQAIFDDSYLGYSVAVGDFNGDGIDDFVSGVPRAARTLGMVYIYDGKNMSSLYNFTGEQMAAYFGFSVAATDINGDDYADVFIGAPLFMDRGSDGKLQEVGQVSVSLQRASGDFQTTKLNGFEVFARFGSAIAPLGDLDQDGFNDIAIAAPYGGEDKKGIVYIFNGRSTGLNAVPSQILEGQWAARSMPPSFGYSMKGATDIDKNGYPDLIVGAFGVDRAILYRARPVITVNAGLEVYPSILNQDNKTCSLPGTALKVSCFNVRFCLKADGKGVLPRKLNFQVELLLDKLKQKGAIRRALFLYSRSPSHSKNMTISRGGLMQCEELIAYLRDESEFRDKLTPITIFMEYRLDYRTAADTTGLQPILNQFTPANISRQAHILLDCGEDNVCKPKLEVSVDSDQKKIYIGDDNPLTLIVKAQNQGEGAYEAELIVSIPLQADFIGVVRNNEALARLSCAFKTENQTRQVVCDLGNPMKAGTQLLAGLRFSVHQQSEMDTSVKFDLQIQSSNLFDKVSPVVSHKVDLAVLAAVEIRGVSSPDHVFLPIPNWEHKENPETEEDVGPVVQHIYELRNNGPSSFSKAMLHLQWPYKYNNNTLLYILHYDIDGPMNCTSDMEINPLRIKISSLQTTEKNDTVAGQGERDHLITKRDLALSEGDIHTLGCGVAQCLKIVCQVGRLDRGKSAILYVKSLLWTETFMNKENQNHSYSLKSSASFNVIEFPYKNLPIEDITNSTLVTTNVTWGIQPAPMPVPVWVIILAVLAGLLLLAVLVFVMYRMGFFKRVRPPQEEQEREQLQPHENGEGNSET
chain 2: GPNICTTRGVSSCQQCLAVSPMCAWCSDEALPLGSPRCDLKENLLKDNCAPESIEFPVSEARVLEDRPLSDKGSGDSSQVTQVSPQRIALRLRPDDSKNFSIQVRQVEDYPVDIYYLMDLSYSMKDDLWSIQNLGTKLATQMRKLTSNLRIGFGAFVDKPVSPYMYISPPEALENPCYDMKTTCLPMFGYKHVLTLTDQVTRFNEEVKKQSVSRNRDAPEGGFDAIMQATVCDEKIGWRNDASHLLVFTTDAKTHIALDGRLAGIVQPNDGQCHVGSDNHYSASTTMDYPSLGLMTEKLSQKNINLIFAVTENVVNLYQNYSELIPGTTVGVLSMDSSNVLQLIVDAYGKIRSKVELEVRDLPEELSLSFNATCLNNEVIPGLKSCMGLKIGDTVSFSIEAKVRGCPQEKEKSFTIKPVGFKDSLIVQVTFDCDCACQAQAEPNSHRCNNGNGTFECGVCRCGPGWLGSQCECSEEDYRPSQQDECSPREGQPVCSQRGECLCGQCVCHSSDFGKITGKYCECDDFSCVRYKGEMCSGHGQCSCGDCLCDSDWTGYYCNCTTRTDTCMSSNGLLCSGRGKCECGSCVCIQPGSYGDTCEKCPTCPDACTFKKECVECKKFDRGALHDENTCNRYCRDEIESVKELKDTGKDAVNCTYKNEDDCVVRFQYYEDSSGKSILYVVEEPECPKGPDILVVLLSVMGAILLIGLAALLIWKLLITIHDRKEFAKFEEERARAKWDTANNPLYKEATSTFTNITYRGT
modifications: here or on the partner: cyclic peptide (cyclo); f = D-phenylalanine

Target: T1, cyclo[RGDfK] cell adhesive peptide, …
Assay: QCM-D; cells (3 × 10^5 cells/ml) injected over a gold-coated quartz crystal carrying a c[RGD(DMNPB)fK]-terminated PEG-thiol SAM, sedimented in stopped flow, peptide activated in situ by LED (360 nm, 1.35 mW cm^-2, 30 s); Δf1 = frequency drop within the first minute after irradiation; 37°C, PBS; also with 10 μM cytochalasin D or 10 μM anti-αVβ3 antibody
Settings: remark: other sources report otherwise

Row | Binder | Δf1 [Hz]
1 | B1 | 0.966
2 | B2 | 0.913
